What was measured:
[1] = molecular target: T1, GluD1 (glutamate delta-1 receptor) (Rattus norvegicus, UniProt Q62640); assay: cell-binding assay: inhibition of rCbln1 binding to GluD1-expressing COS-7 cells; effect lost in R526K mutant; immunoblot confirmation in HEK293T; format: cell-based
T1 construct: gene Grid1; rat pCAGGS GluD1 plasmid expressed in COS-7 cells; with Cbln1 (recombinant, HA-tagged)

GluD1 = GluD1 (UniProt Q9ULK0); conditions: cited from earlier work
Neurexin = Neurexin (UniProt P58400); conditions: cited from earlier work
Chain of Neurexin (P58400 51-396): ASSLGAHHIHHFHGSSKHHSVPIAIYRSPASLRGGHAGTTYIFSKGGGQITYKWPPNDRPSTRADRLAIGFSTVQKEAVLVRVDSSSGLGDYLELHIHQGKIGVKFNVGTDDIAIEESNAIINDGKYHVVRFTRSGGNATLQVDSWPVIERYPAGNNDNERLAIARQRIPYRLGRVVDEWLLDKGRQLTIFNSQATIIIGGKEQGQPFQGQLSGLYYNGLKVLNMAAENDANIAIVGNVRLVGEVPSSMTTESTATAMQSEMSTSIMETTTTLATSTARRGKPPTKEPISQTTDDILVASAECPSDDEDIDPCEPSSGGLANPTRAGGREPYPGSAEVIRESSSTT

Chain of Cbln1 (P23435 22-193): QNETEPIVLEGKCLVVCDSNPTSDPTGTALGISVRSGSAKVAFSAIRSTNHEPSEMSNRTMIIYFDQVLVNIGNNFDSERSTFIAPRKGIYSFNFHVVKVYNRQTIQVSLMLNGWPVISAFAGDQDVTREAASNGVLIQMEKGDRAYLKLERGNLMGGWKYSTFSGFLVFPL
T1 sequence (Q62640 21-1009): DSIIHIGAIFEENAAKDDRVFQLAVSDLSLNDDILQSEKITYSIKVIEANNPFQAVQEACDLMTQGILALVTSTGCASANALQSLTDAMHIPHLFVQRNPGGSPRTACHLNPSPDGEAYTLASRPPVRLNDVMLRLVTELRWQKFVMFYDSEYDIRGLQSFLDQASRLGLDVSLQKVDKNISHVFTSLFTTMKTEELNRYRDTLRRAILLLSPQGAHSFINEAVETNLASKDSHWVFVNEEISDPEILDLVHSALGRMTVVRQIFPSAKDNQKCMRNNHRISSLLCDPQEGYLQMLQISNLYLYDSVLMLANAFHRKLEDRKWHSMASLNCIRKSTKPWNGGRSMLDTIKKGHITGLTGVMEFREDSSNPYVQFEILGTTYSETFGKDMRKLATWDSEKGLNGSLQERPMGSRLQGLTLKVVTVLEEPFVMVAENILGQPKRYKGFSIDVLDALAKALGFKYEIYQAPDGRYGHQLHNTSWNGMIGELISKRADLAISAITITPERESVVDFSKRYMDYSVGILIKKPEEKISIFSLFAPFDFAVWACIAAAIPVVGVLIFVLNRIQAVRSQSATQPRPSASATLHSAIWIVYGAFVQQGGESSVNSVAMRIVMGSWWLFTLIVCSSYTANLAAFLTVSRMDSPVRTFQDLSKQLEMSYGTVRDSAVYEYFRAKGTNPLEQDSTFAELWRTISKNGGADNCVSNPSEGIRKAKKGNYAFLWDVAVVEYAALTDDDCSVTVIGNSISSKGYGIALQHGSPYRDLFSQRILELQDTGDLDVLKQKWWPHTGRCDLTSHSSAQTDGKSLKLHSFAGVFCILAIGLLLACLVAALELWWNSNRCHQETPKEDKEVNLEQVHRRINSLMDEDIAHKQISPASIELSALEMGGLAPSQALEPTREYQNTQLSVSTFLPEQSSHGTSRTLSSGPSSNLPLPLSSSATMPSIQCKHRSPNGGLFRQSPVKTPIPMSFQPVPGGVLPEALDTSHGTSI
T1 sequence (P63182 22-193 partner): as the sequence (P23435 22-193) above
Chain of GluD1 (Q9ULK0 21-436): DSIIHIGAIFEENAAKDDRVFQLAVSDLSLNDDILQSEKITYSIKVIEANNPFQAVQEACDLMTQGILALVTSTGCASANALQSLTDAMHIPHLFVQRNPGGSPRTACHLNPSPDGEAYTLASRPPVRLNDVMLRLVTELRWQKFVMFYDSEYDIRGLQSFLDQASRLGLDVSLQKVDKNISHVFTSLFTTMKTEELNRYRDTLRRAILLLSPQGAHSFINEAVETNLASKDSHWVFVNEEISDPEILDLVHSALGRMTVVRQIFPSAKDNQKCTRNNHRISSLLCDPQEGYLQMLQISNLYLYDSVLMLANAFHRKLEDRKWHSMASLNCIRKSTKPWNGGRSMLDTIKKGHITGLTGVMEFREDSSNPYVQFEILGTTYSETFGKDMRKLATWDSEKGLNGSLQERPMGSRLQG

Compound | IC50 [1] [µM] | Kd (GluD1) [µM] | Kd (Neurexin) [µM]
N[C@H](CO)C(=O)O [D-serine] | 310 ± 160 | – | –
Cbln1 (from UniProt P23435) | – | 0.1 | 0.047
